Publication PMC12922752 (Science Advances, 2026)

B1: Rpt2 of the ATPase ring isolated from Saccharomyces cerevisiae (natural protein)
chain: MGQGVSSGQDKKKKKGSNQKPKYEPPVQSKFGRKKRKGGPATAEKLPNIYPSTRCKLKLLRMERIKDHLLLEEEFVSNSEILKPFEKKQEEEKKQLEEIRGNPLSIGTLEEIIDDDHAIVTSPTMPDYYVSILSFVDKELLEPGCSVLLHHKTMSIVGVLQDDADPMVSVMKMDKSPTESYSDIGGLESQIQEIKESVELPLTHPELYEEMGIKPPKGVILYGAPGTGKTLLAKAVANQTSATFLRIVGSELIQKYLGDGPRLCRQIFKVAGENAPSIVFIDEIDAIGTKRYDSNSGGEREIQRTMLELLNQLDGFDDRGDVKVIMATNKIETLDPALIRPGRIDRKILFENPDLSTKKKILGIHTSKMNLSEDVNLETLVTTKDDLSGADIQAMCTEAGLLALRERRMQVTAEDFKQAKERVMKNKVEENLEGLYL

How the values were obtained:
[1] = molecular target: Rpn1, human, recombinant full-length (human) (UniProt Q13200); assay: ITC
Sequence of Rpn1, human, recombinant full-length (human) (Q13200 whole entry, the tested form may be a part): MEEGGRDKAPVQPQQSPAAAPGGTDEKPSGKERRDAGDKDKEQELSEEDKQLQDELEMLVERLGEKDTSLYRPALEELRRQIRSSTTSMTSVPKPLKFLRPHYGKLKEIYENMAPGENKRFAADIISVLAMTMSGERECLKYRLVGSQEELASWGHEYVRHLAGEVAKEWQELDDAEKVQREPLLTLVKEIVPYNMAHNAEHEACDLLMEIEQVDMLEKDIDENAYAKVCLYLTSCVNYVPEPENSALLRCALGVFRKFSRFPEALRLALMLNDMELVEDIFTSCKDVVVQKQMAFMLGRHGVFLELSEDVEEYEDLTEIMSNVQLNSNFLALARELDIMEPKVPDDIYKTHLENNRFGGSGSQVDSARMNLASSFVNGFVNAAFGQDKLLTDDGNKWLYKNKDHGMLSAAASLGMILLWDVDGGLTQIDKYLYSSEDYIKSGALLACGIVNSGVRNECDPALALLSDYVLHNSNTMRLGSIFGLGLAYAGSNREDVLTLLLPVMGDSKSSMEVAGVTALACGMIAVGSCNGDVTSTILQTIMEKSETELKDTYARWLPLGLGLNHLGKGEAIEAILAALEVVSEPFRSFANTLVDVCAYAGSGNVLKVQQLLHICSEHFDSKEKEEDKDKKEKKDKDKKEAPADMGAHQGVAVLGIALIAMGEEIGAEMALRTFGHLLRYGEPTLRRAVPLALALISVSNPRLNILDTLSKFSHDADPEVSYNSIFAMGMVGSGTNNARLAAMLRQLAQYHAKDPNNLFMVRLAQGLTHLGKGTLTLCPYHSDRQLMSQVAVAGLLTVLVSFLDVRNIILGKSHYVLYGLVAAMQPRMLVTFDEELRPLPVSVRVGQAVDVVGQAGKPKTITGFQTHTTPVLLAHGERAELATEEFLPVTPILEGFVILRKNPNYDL

[2] = molecular target: Hsp70 nucleotide-binding domain (Hsp70NBD); assay: ITC
[3] = molecular target: Rpn1, human, recombinant full-length (human, UniProt Q13200 1-908); assay: cross-linking
Sequence of Rpn1, human, recombinant full-length (Q13200 whole entry): as the sequence (Q13200 whole entry, the tested form may be a part) above

| Molecule | Kd [1] | Kd [2] | binding result [3] |
| --- | --- | --- | --- |
| Bcl-2-associated anthanogene 1 (Bag1), full-length (natural protein) | 500 nM | 50 nM |  |
| B1 |  |  | binds |
